Data on 1 protein can be found in paper PMC7255509, “Crystal structure of the catalytic C‐lobe of the HECT‐type ubiquitin ligase E6AP” (Protein Science : A Publication of the Protein Society, 2020).

This series concerns the molecule itself. As to the kind of experiment: crystal structure; crystallised at >=30 mg/ml (crystal used: 60 mg/ml), 20°C, sitting drops, 0.1 M calcium chloride, 0.1 M sodium acetate pH 4.6, 30% PEG400; 1.3 Å; dimer of two symmetry-related molecules.

B1: C-lobe of the catalytic (HECT) domain of E6AP (domain or fragment, UniProt Q05086-2 741-852, looked up)
chain: NLDFQALEETTEYDGGYTRDSVLIREFWEIVHSFTDEQKRLFLQFTTGTDRAPVGGLGKLKMIIAKNGPDTERLPTSHTCFNVLLLPEYSSKEKLKERLLKAITYAKGFGML
notes: E6AP (UBE3A), HECT-type ubiquitin ligase, C-lobe of the catalytic domain, residues 741-852; catalytic Cys820; numbers count on: isoform 1 (ends at residue 852); Cleavage by 3C protease may leave a few residues of the vector at the N-terminus; In the crystal the two Cys820 are read as partly joined by an intermolecular disulfide; also called E6AP C-lobe; C-terminal lobe of E6AP; source: E. coli …
As to B1, the “stoichiometry N” value is 2.
